One series deals with Antp HD-DERT11 (UniProt P02833). The series can be described thus: fluorescence anisotropy. As to conditions: pH 5.8, 200 mM KCl, Antp Kd: 20 mM potassium succinate pH 5.8, 0.4 mM NaF, HMGB1: 10 mM K phosphate pH 7.5, 1 mM DTT, 1 mM MgCl2, 100 mM KCl, 25 C, Antp stopped-flow: ….
The target in series [1] is Antp HD (control without DERT; Antp HD-MID) (UniProt P02833). Description: fluorescence anisotropy. Conditions: pH 5.8, 200 mM KCl, Antp Kd: 20 mM potassium succinate pH 5.8, 0.4 mM NaF, HMGB1: 10 mM K phosphate pH 7.5, 1 mM DTT, 1 mM MgCl2, 100 mM KCl, 25 C, Antp stopped-flow: ….
Chain of Antp HD (control without DERT; Antp HD-MID) (P02833 whole entry): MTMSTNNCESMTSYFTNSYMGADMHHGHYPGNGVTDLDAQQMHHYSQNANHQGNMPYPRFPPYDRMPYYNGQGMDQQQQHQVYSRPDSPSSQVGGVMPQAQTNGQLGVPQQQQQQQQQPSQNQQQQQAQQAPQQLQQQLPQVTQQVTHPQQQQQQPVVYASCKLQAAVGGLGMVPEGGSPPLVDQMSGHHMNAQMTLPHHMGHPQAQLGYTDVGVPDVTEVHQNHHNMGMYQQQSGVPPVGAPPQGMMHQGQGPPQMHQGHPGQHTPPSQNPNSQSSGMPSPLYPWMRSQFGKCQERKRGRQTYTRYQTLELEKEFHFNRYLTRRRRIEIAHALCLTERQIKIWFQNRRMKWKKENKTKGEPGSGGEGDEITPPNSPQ
Another series deals with Antp HD-DERT16 (UniProt P02833). The series can be described thus: fluorescence anisotropy. As to conditions: pH 5.8, 200 mM KCl, Antp Kd: 20 mM potassium succinate pH 5.8, 0.4 mM NaF, HMGB1: 10 mM K phosphate pH 7.5, 1 mM DTT, 1 mM MgCl2, 100 mM KCl, 25 C, Antp stopped-flow: ….
Chain of Antp HD-DERT16 (P02833 whole entry): as above
A further series concerns the target Antp HD-DERT7 (UniProt P02833). The series can be described thus: fluorescence anisotropy. Conditions: pH 5.8, 200 mM KCl, Antp Kd: 20 mM potassium succinate pH 5.8, 0.4 mM NaF, HMGB1: 10 mM K phosphate pH 7.5, 1 mM DTT, 1 mM MgCl2, 100 mM KCl, 25 C, Antp stopped-flow: ….
A further series concerns the target HMGB1 full-length (human, UniProt P09429 1-215). The series can be described thus: competition (fluorescence anisotropy); 10 mM K phosphate pH 7.5, 1 mM DTT, 1 mM MgCl2, 100 mM KCl, 25 C; apparent Kd; Antp Kd: 20 mM potassium succinate pH 5.8, 0.4 mM NaF, 200 mM KCl; HMGB1: 10 mM K phosphate pH 7.5, 1 mM DTT, 1 mM MgCl2, 100 mM KCl, 25 C; Antp stopped-flow: 1. As to conditions: protein: recombinant.

Chain of HMGB1 full-length (P09429 whole entry): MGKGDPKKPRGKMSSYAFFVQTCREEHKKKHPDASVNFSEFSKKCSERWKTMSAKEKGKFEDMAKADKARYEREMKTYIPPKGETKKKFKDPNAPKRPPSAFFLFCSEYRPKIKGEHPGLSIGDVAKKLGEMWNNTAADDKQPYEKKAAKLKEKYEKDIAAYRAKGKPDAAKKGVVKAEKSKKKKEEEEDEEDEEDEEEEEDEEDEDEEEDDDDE
Chain of Antp HD-DERT7 (P02833 whole entry): as the sequence (P02833 whole entry) above
Chain of Antp HD-DERT11 (P02833 whole entry): as above

“TAMRA-labeled 15-bp Antp recognition DNA”: the Kd was found to be 69 nM in the series with Antp HD-DERT11, 2.6 nM in series [1], 61 nM with Antp HD-DERT16 and 19 nM with Antp HD-DERT7.

B1: unlabeled cisplatin-modified DNA (dsDNA)
DNA 1: CTCTGGACCTTCCTTTCTTC
DNA 2: GAAGAAAGGAAGGTCCAGAG
modifications: cisplatin adduct
B1: the Kd in the series with HMGB1 full-length was found to be 17 ± 3 nM.
